Experiments:
anti-FIXa-arm of ACE910 = target: T1, anti-FIXa-arm of ACE910; assay: ELISA, hybridoma culture supernatant
T1 construct: This is inferred from the parallel order 'anti-FIXa/FX' and 'Q499-z121/J327-z119' and from the AQ/AJ antibody names; also called anti-FIXa side; anti-FIXa-F(ab')2
Method: (§1) Mice and rats were immunized with anti-FIXa-F(ab′)2 or anti-FX-F(ab′)2. Cells obtained from the spleen removed from the mice or rats or from rat lymph nodes were subjected to cell fusion with mouse myeloma cells by following general methods to produce the hybridomas. The culture supernatants of the hybridomas were evaluated by ELISA which detects the binding of ACE910 to the anti-FIXa-arm or the anti-FX-arm, and ultimately, mouse antibodies, AQ8 and AQ1, and rat antibody, AQ512, which bind only to the anti-FIXa-arm but not to the anti-FX-arm of ACE910, and rat antibodies, AJ540, AJ114, AJ521, AJ522, and AJ541, which bind only to the anti-FX-arm but not to the anti-FIXa-arm of ACE910 were selected. In addition, the nucleotide sequences of the variable regions of the AQ8 antibody or the AJ540 antibody were analyzed. The nucleotide sequences of the variable regions of AQ8 and AJ540, and amino acid sequences predicted therefrom were analyzed using GENETYX Ver.9 (GENETYX CORPORATION).

anti-FX-arm of ACE910 = target: T2, anti-FX-arm of ACE910; assay: ELISA, hybridoma culture supernatant
T2 construct: This is inferred from the parallel order 'anti-FIXa/FX' and 'Q499-z121/J327-z119' and from the AQ/AJ antibody names; also called anti-FX side; anti-FX-F(ab')2
Method: as §1

T2 sequence (VH, as listed by the source, chain 1 of 2): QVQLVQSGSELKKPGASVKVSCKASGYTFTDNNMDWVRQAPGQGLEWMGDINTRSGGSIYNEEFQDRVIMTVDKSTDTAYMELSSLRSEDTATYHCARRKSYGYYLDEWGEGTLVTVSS
T2 sequence (VL, as listed by the source, chain 2 of 2): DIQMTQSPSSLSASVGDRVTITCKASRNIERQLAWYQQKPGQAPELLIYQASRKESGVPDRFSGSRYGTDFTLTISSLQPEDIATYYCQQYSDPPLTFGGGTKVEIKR
T1 sequence (VH, as listed by the source, chain 1 of 2): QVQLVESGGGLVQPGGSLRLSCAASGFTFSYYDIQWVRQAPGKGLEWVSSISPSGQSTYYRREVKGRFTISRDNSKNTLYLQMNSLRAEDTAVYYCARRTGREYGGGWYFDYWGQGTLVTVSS
T1 sequence (VL, as listed by the source, chain 2 of 2): as the sequence (VL, as listed by the source, chain 2 of 2) above

| binding result (anti-FIXa-arm of ACE910) | binding result (anti-FX-arm of ACE910) | Binder |
| --- | --- | --- |
| no binding | – | rat antibody AJ540 (antibody, V domains shown, Rat hybridoma antibody, tested as culture supernatant in ELISA; also called AJ540 antibody) VH: QIQLVQSGPELKKPGESVKISCKASGYTFTDYAMHWVKQVPGKGLKWMGWINTYTGKPTYADDFKGRFVFSLEASASTANLQISNLKNEDTANVFCAREGGGYYWYFDFWGPGTMVTVSS VL: DIVMTQSPTSMSISVGDRVTMNCKANQNVDFNVDWYQQKTGQSPKLLIYKASNRYTGVPDRFTGSGSGTDFTFTISNMQAEDLAVYYCMQSNSFPLTFGSGTNLEIK |
| – | no binding | mouse antibody AQ8 (antibody, V domains shown, Mouse hybridoma antibody, tested as culture supernatant in ELISA; also called AQ8 antibody) VH: EVNLVESGGGLVQPGGSMSLSCAASGFTFTDYYMSWVRQPPGKALEWLALIRNKANGYTTEYSASVKGRFTISRDNSQSILYLQMNALRAEDSATYYCARDSYYSYDGYAMDYWGQGTSVTVSS VL: DIQMTQSPASLAASVGETITITCQASENIYFSLAWYQQKQGKSPQLLIYNTDSLKDGVPSRFSGSGSGTQYSMKINSMQPEDTATYFCRQSYDFPWTFGGGTKLEIK |
